Changes are numbered by the printed parent chain.
T1: EBOV GP on rVSV particles (Ebola virus (EBOV), UniProt Q05320 33-676)
T1 sequence: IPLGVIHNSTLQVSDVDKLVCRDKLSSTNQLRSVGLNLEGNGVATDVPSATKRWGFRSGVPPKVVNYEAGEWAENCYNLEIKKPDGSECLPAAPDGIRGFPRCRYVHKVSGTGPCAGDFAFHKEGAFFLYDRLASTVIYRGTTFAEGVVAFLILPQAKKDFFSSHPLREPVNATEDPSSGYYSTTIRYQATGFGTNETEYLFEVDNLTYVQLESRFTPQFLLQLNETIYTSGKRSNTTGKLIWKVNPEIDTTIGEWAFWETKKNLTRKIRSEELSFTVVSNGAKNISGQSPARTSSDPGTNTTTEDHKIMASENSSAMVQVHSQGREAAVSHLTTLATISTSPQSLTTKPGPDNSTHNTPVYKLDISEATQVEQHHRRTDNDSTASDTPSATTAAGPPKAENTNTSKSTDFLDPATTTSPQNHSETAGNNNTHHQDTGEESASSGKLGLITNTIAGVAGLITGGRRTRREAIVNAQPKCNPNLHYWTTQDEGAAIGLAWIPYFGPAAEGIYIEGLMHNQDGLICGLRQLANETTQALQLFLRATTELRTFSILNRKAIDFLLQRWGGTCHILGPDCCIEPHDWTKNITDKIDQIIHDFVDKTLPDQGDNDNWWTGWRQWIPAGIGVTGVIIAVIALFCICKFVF

T2: TAFV GP on VSV pseudotype particles (Tai Forest virus (TAFV), UniProt Q66810 33-676)
T2 sequence: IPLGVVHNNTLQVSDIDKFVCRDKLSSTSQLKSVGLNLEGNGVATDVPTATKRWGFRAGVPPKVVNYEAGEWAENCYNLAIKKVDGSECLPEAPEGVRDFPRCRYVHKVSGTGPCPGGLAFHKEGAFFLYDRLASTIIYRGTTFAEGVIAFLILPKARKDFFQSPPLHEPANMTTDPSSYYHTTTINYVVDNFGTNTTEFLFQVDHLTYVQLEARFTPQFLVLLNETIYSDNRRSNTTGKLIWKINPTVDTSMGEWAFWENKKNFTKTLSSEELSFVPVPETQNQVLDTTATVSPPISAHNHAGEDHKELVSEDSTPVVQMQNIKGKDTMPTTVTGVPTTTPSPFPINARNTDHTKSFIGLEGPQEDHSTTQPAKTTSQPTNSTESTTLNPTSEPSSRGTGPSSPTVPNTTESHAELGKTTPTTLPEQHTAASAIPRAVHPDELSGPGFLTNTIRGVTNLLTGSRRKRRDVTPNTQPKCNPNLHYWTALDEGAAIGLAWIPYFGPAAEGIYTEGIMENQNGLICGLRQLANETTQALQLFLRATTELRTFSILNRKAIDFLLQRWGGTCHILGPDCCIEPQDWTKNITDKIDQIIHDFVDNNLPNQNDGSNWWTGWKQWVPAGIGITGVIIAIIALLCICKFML

T3: SUDV GP on rVSV particles (Sudan virus (SUDV), UniProt Q66814 33-676)
T3 sequence: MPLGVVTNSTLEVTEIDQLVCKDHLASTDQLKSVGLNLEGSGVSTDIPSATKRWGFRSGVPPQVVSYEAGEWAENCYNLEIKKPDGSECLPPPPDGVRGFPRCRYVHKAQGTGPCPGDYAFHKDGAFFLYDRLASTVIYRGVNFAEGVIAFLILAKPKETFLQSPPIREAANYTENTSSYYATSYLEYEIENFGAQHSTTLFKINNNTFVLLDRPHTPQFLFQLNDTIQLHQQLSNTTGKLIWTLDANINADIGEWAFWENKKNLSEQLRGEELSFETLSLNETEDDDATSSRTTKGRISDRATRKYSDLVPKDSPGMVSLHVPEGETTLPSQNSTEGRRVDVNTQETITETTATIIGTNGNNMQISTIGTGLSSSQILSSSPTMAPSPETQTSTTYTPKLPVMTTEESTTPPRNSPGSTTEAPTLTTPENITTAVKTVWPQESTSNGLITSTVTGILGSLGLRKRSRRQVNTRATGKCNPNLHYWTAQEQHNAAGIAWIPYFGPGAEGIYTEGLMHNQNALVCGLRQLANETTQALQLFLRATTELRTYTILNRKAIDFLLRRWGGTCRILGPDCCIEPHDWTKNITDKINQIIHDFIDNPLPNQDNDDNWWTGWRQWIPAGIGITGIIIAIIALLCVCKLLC

T4: MARV GP (Marburg virus (MARV), UniProt P35253 19-637)
T4 sequence: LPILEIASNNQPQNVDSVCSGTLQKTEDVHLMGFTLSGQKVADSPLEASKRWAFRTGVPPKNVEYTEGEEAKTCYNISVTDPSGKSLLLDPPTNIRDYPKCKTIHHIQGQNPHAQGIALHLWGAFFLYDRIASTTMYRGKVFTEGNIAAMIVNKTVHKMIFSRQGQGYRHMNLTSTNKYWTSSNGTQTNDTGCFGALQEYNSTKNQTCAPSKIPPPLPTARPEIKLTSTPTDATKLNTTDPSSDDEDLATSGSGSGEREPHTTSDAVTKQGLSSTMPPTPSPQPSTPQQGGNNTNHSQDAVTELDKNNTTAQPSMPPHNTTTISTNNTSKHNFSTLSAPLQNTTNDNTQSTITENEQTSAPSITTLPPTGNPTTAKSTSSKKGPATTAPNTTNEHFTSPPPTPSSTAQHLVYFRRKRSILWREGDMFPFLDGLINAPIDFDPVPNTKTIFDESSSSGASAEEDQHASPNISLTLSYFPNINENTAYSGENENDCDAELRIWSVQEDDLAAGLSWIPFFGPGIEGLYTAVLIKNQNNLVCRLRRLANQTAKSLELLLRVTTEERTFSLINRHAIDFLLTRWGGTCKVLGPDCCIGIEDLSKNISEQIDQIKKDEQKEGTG

T5: sGP (UniProt P60170 33-324)
T5 sequence: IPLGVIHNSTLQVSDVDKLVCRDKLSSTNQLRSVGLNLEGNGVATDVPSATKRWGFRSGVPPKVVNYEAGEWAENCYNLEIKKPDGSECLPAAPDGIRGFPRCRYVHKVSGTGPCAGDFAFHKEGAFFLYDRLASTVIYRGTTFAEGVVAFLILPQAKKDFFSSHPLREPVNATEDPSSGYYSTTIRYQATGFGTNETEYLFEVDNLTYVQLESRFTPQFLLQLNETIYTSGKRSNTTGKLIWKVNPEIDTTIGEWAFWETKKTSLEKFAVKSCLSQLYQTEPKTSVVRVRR

B1: mAb PE-87 (antibody, V domains shown)
VH: QVQLVQSGVTLVQPGGSLRVSCAASGFTFSSYAMSWVRQAPGKGLEWVSAISGLGGSTYYADSVKGRFTISRDNSKNTLYLQMNSLRAEDTAVYYCAKDHRVWAAGYHFDYWGQGALVTVSS
VL: DIVLTQSPSTLSASVGDRVTITCRASQSISSWLAWYQQKPGEAPKLLISDASSLESGVPSRFSGSGSGTEFTLTISSLQPDDFATYYCQQYYSSPTFGGGTKVEIK
B2: mAb PE-24 (antibody, V domains shown)
VH: EVQLVESGGGLVQPGGSLRLSCAASGFTFSSYAMSWVRQAPGKGLEWVSEISGLGGSTYYADSAKGRFTISRDNSKSTLYLQMNSLRAEDTAVYYCAKDHRVWAPGYYFDHWGQGTLVTVSS
VL: B1 VL with E42K, S49Y, Y87F, Y92N, S93R
B3: mAb PE-16 (antibody, V domains shown)
VH: QVQLVQSGAEVTKPGASVKVSCKASGYTFTTYYMHWVRQAPGQGLEWVGIINPSGGITRYAQKFQGRVTLTRDTSTTTVYMELSSLRSEDTAVYYCARDRYPVLFATDYGMDVWGQGTTVTVSS
VL: DIVMTQSPATLSLSPGERATLSCRASQSVSGYLAWYQQKPGQAPRLLIYDASNRATGIPARFSGSGSGTDFTLTISSLEPEDFAVYYCQQRSIWPPGVTFGGGTKVEIK
B4: mAb PE-05 (antibody, V domains shown)
VH: QVQLQESGGGLVKPGRSLRLSCTASGFTFGDYAMSWFRQAPGKGLEWVGFLRSKAYGGTAEYAASVKGRFTMSRDDSKSIAYLQMNSLKTEDTAVYFCTRDGFRGSSWGYSYYGMDVWGQGTTVTVSS
VL: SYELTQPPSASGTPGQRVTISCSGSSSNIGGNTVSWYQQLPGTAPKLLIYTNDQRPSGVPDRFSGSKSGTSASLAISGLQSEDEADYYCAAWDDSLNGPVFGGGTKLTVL
B5: mAb PE-47 (antibody, V domains shown)
VH: EVQLVESGGGLVKPGGSLRLSCAASGFTFSNAWMSWVRQAPGEGLEWVGRIKSKTDGGTIDYAAPVKGRFTISRDDSKNTVYLQMTSLKTEDTAVYYCTTYTEDMQYFDWLLRGGETFDYWGQGTLVTVSS
VL: DIQMTQSPSSLSASVGDRVTITCRASQYISTYLNWYQQKPGKAPKLLIYAAYNLQSGVPSRFSGSGSGTDFTLTISSLQPEDFATYYCQQSYSTPGRYTFGQGTKVEIK

What was measured:
[1] = molecular target: BDBV GP on rVSV particles (Bundibugyo virus (BDBV)); test: cell-based or functional assay
[2] = molecular target: T1, EBOV GP on rVSV particles; test: cell-based or functional assay
[3] = molecular target: T2, TAFV GP on VSV pseudotype particles; test: cell-based or functional assay
[4] = molecular target: T3, SUDV GP on rVSV particles; test: cell-based or functional assay
MARV GP = molecular target: T4, MARV GP; test: ELISA, GP antigen coated
sGP = molecular target: T5, sGP; test: ELISA, GP antigen coated

| Binder | IC50 (nM), neutralization of rVSV-GP [1] [nM] | IC50 (nM), neutralization of rVSV-GP [2] [nM] | IC50 (nM), neutralization of rVSV-GP [3] [nM] | IC50 (nM), neutralization of rVSV-GP [4] [nM] | binding result (MARV GP) | binding result (sGP) |
| --- | --- | --- | --- | --- | --- | --- |
| B1 | 0.4 | 1 | 0.9 | 0.8 | no binding (tested: 0.2 µg/ml) | no binding (tested: 0.2 µg/ml) |
| B2 | – | – | – | – | no binding (tested: 0.2 µg/ml) | no binding (tested: 0.2 µg/ml) |
| B3 | – | – | – | – | no binding (tested: 0.2 µg/ml) | no binding (tested: 0.2 µg/ml) |
| B4 | – | – | – | – | no binding (tested: 0.2 µg/ml) | – |
| B5 | – | – | – | – | no binding (tested: 0.2 µg/ml) | no binding (tested: 0.2 µg/ml) |

Source: patent US20180244758A1 (MAPP BIOPHARMACEUTICAL, published 2018)
